Assay results as given in patent US20240270857A1 (CHIA TAI TIANQING PHARMACEUTICAL GROUP, published 2024).

T1: CynoIL36R-ECD mFc recombinant protein (cynomolgus monkey)
T1 construct: Made in ExpiCHO, purified on Protein A; also called cynomolgus IL-36R extracellular region with mouse antibody heavy chain Fc
T1 chain: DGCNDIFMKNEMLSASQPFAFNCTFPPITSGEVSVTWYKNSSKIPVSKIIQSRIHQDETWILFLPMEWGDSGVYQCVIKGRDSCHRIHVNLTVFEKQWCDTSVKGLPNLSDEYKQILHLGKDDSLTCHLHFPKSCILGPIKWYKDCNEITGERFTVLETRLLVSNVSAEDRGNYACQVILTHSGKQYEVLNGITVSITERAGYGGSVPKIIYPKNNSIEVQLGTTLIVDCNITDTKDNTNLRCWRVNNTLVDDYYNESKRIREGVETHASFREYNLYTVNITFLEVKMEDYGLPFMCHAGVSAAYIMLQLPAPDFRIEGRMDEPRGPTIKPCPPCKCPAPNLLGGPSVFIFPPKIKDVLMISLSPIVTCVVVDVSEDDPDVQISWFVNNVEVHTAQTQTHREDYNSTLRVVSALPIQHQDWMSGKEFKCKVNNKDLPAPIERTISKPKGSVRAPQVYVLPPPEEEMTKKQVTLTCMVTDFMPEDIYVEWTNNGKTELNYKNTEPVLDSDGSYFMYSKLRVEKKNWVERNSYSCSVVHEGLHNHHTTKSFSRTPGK

T2: cynomolgus IL-36R overexpressed on 293T-CynoIL36R-NFκB cells (cynomolgus monkey)
T2 chain: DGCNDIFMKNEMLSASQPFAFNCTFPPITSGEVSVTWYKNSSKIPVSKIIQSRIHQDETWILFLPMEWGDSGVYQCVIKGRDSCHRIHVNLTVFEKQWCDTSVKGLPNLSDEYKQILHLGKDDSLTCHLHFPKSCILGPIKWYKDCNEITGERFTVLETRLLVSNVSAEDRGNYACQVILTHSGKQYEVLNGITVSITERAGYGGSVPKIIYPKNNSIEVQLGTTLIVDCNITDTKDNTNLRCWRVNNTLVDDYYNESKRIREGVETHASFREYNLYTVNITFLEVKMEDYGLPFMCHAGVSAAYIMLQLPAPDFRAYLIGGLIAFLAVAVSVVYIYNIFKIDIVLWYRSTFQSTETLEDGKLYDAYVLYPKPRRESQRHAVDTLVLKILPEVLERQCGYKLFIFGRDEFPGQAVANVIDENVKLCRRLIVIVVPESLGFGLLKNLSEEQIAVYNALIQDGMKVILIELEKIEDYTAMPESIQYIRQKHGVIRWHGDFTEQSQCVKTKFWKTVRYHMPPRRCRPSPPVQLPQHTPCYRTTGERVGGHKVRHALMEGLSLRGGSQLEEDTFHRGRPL

T3: IL-36R naturally expressed on OVCAR8 cells and on normal human epidermal keratinocytes (NHK cells) (human, UniProt Q9HB29 20-575)
T3 sequence (looked up): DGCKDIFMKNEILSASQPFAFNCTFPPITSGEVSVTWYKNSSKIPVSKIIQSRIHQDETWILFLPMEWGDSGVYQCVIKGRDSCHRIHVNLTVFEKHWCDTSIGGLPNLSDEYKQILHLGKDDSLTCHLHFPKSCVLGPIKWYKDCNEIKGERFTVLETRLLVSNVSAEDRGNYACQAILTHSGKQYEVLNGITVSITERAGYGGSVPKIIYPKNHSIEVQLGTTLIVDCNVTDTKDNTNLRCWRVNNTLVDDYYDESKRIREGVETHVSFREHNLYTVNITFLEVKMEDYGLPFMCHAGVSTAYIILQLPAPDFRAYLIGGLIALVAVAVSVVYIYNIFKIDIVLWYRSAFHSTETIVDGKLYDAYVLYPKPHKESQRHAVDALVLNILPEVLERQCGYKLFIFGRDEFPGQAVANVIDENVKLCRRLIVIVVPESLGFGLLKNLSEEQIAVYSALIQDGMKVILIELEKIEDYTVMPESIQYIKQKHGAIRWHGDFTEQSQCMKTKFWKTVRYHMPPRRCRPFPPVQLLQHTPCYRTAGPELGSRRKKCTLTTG


Columns and labels:
[1] = target: T1, CynoIL36R-ECD mFc recombinant protein; test: ELISA, plate coated with CynoIL36R-ECD mFc, HRP-protein A/G, OD450
Description: The binding activity of anti-IL-36R antibodies to IL-36R was analyzed by ELISA using human IL-1Rrp2/IL-1R6 protein, His Tag (ACROBiosystems, IL2-H52H6) and CynoIL36R-ECD mFc (for detection of chimeric and humanized antibodies), and hIL36R-ECD hFc and CynoIL36R-ECD hFc protein (for detection of hybridoma antibodies) as antigens. A 96-well plate (Costar, 9018) was coated with 2 μg/mL antigen at 100 μL/well and incubated overnight at 4° C. After the 96-well plate was washed with a washing buffer (PBS containing 0.05% v/v Tween 20), a blocking buffer (PBS containing 2% bovine serum albumin) was added for blocking at 37° C. for 2 h. After the 96-well plate was washed with the washing buffer, 100 μL of the gradient diluted anti-IL-36R antibody of the present disclosure or the reference antibody BI655130 (the initial concentration of the antibody was 66 nM, 4-fold gradient dilution) was added to each well, and the plate was incubated at room temperature for 1 h. After the 96-well plate was washed with the washing buffer, 100 μL of horseradish peroxidase-conjugated recombinant protein A/G (TheroScientific, 32490) was added to each well, and the plate was incubated at room temperature for 1 h. After the 96-well plate was washed with the washing buffer, 100 μL of a TMB solution (Thermo, 00-4201-56) was added to each well, and the plate was incubated at room temperature for 2 min. Finally, 100 μL of a stop solution (2 N H₂SO₄) was added to each well to stop the reaction. Absorbance was read at 450 nm using a microplate reader (PE, Envision), the resulting data was analyzed using GraphPad Prism, and EC₅₀ was calculated. Binding EC₅₀ of the chimeric anti-IL-36R antibodies to hIL-36R in an ELISA assay is shown in FIG. 1. and binding EC₅₀ of the chimeric anti-IL-36R antibodies to CynoIL-36R in an ELISA assay is shown in FIG. 2. The binding of BI655130 is shown as a control, and the binding of IgG4 is shown as a negative control.

[2] = target: T2, cynomolgus IL-36R overexpressed on …; test: cell-based or functional assay
[3] = target: T3, IL-36R naturally expressed on OVCAR8 …; test: cell-based or functional assay

Binder	EC50 [1]	IC50 (M); hIL36α; IL-8 production [3]	IC50 (M); hIL36αβγ; IL-8 production [3]	IC50 (M); hIL36β; IL-8 production [3]	IC50 (M); hIL36γ; IL-8 production [3]	Maximum inhibition rate %; hIL36α; IL-8 production [3]	Maximum inhibition rate %; hIL36αβγ; IL-8 production [3]	Maximum inhibition rate %; hIL36β; IL-8 production [3]	Maximum inhibition rate %; hIL36γ; IL-8 production [3]	also measured
hz72C1-1.2 (antibody, human IgG4 S228P, kappa, Humanized, human IgG4 / kappa) heavy: not shown light: DIQMTQSPSSLSASVGDRVTITCRASSNVRYMYWYQQKPGKAPKLWIYLTSNLASGVPSRFSGSGSGTSYTLTISSLQPEDFATYYCQQFTTSPYTFGQGTKLEIKRTVAAPSVFIFPPSDEQLKSGTASVVCLLNNFYPREAKVQWKVDNALQSGNSQESVTEQDSKDSTYSLSSTLTLSKADYEKHKVYACEVTHQGLSSPVTKSFNRGEC	4.26 nM									
hz72C1-2.3 (antibody, human IgG4 S228P, kappa, Humanized, human IgG4 / kappa) heavy: not shown light: DIQMTQSPSSLSASVGDRVTITCRASSNVRYMYWYQQKPGKAPKLWIYLTSNLASGVPSRFSGSGSGTSYTLTISSLQPEDFATYYCQQYTTSPYTFGQGTKLEIKRTVAAPSVFIFPPSDEQLKSGTASVVCLLNNFYPREAKVQWKVDNALQSGNSQESVTEQDSKDSTYSLSSTLTLSKADYEKHKVYACEVTHQGLSSPVTKSFNRGEC	6.38 nM									
hz72C1-2.1 (antibody, human IgG4 S228P, kappa, Humanized, human IgG4 / kappa) heavy: not shown light: DIQMTQSPSSLSASVGDRVTITCRASSNVRYMYWYQQKPGKAPKLWIYLTSNLASGVPSRFSGSGSGTSYTLTISSLQPEDFATYYCQQYTTSPYTFGQGTKLEIKRTVAAPSVFIFPPSDEQLKSGTASVVCLLNNFYPREAKVQWKVDNALQSGNSQESVTEQDSKDSTYSLSSTLTLSKADYEKHKVYACEVTHQGLSSPVTKSFNRGEC	10.5 nM									
hz72C1-2.2 (antibody, human IgG4 S228P, kappa, Humanized, human IgG4 / kappa) heavy: not shown light: DIQMTQSPSSLSASVGDRVTITCRASSNVRYMYWYQQKPGKAPKLWIYLTSNLASGVPSRFSGSGSGTSYTLTISSLQPEDFATYYCQQYTTSPYTFGQGTKLEIKRTVAAPSVFIFPPSDEQLKSGTASVVCLLNNFYPREAKVQWKVDNALQSGNSQESVTEQDSKDSTYSLSSTLTLSKADYEKHKVYACEVTHQGLSSPVTKSFNRGEC	4.87 nM									
hz72C1-1.1 (antibody, human IgG4 S228P, kappa, Humanized, human IgG4 / kappa; also called humanized 72C1 antibody 1.1) heavy: not shown light: DIQMTQSPSSLSASVGDRVTITCRASSNVRYMYWYQQKPGKAPKLWIYLTSNLASGVPSRFSGSGSGTSYTLTISSLQPEDFATYYCQQFTTSPYTFGQGTKLEIKRTVAAPSVFIFPPSDEQLKSGTASVVCLLNNFYPREAKVQWKVDNALQSGNSQESVTEQDSKDSTYSLSSTLTLSKADYEKHKVYACEVTHQGLSSPVTKSFNRGEC	2.73 nM									IC50 (M); hIL36α; NFκB-luciferase [2]: 3.15e-09 M; IC50 (M); hIL36β; NFκB-luciferase [2]: 3.09e-09 M; IC50 (M); hIL36γ; NFκB-luciferase [2]: 1.66e-09 M; Maximum inhibition rate %; hIL36α; NFκB-luciferase [2]: 101%; Maximum inhibition rate %; hIL36β; NFκB-luciferase [2]: 100%; Maximum inhibition rate %; hIL36γ; NFκB-luciferase [2]: 104%
hz84C4-2.2 (antibody, human IgG4 S228P, kappa, V domains shown, Humanized, human IgG4 / kappa) VH: QVQLVQSGAEVKKPGASVKVSCKASGYFFTSYWMNWVRQAPGQGLEWMGYIHPYDSETRYAQKFQGRVTMTVDKSTSTVYMELSSLRSEDTAVYYCASSTTAFAYWGQGTLVTVSS VL: DIQMTQSPSSLSASVGDRVTITCRASQDIGNALNWLQQKPGKAPKRLIYATSSLDPGVPSRFSGSRSGTDYTLTISSLQPEDFATYYCLQYASSPYTFGQGTKVEIKR		8.45e-11 M	6.63e-11 M	4.64e-11 M	6.21e-11 M	95.1%	100%	95.8%	15%	
hz84C4-2.5 (antibody, human IgG4 S228P, kappa, V domains shown, Humanized, human IgG4 / kappa) VH: QVQLVQSGAEVKKPGASVKVSCKVSGYFFTSYWMNWVNQAPGQGLEWMGMIHPYDSETRLAQKFKGRVTMTVDKSTSTVYMELSSLRSEDTAVYYCASSTTAFAYWGQGTLVTVSS VL: DIQMTQSPSSLSASVGDRVTITCRASQDIGNALNWLQQKPGKAPKRLIYATSSLDPGVPSRFSGSRSGTDYTLTISSLQPEDFATYYCLQYASSPYTFGQGTKVEIKR		4.81e-11 M	6.61e-11 M	1.24e-11 M	8.4e-12 M	99.7%	98.5%	102%	103%	
hz84C4-2.4 (antibody, human IgG4 S228P, kappa, V domains shown, Humanized, human IgG4 / kappa) VH: QVQLVQSGAEVKKPGASVKVSCKASGYYFTSYWMNWVRQAPGQGLEWMGMIHPYDSETRLAQKFKGRVTMTVDKSTSTVYMELSSLRSEDTAVYYCASSTTAFAYWGQGTLVTVSS VL: DIQMTQSPSSLSASVGDRVTITCRASQDIGNALNWLQQKPGKAPKRLIYATSSLDPGVPSRFSGSRSGTDYTLTISSLQPEDFATYYCLQYASSPYTFGQGTKVEIKR		4.68e-11 M	1.57e-10 M	6.52e-11 M	1.12e-11 M	95%	95.6%	92.7%	101%	
hz84C4-2.3 (antibody, human IgG4 S228P, kappa, V domains shown, Humanized, human IgG4 / kappa) VH: QVQLVQSGAEVKKPGASVKVSCKASGYFFTSYWMNWVRQAPGQGLEWMGMIYPYDSETRYAQKFQGRVTMTVDKSTSTVYMELSSLRSEDTAVYYCASSTTAFAYWGQGTLVTVSS VL: DIQMTQSPSSLSASVGDRVTITCRASQDIGNALNWLQQKPGKAPKRLIYATSSLDPGVPSRFSGSRSGTDYTLTISSLQPEDFATYYCLQYASSPYTFGQGTKVEIKR		~9.24e-13 M	8.23e-11 M	~2.73e-11 M	8.76e-10 M	44.5%	33.1%	23.4%	57%	
